Molecular target: T1, RNase I, an RNase from E. coli (Promega Cat. #M4261) (E. coli, UniProt P21338 24-268)
T1 sequence (looked up): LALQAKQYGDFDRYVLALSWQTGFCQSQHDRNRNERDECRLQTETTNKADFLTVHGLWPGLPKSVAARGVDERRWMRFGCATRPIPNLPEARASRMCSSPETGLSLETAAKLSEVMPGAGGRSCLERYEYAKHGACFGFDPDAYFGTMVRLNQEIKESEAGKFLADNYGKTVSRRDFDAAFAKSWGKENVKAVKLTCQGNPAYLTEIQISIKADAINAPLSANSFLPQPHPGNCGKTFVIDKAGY
Assay: cell-based or functional assay

B1: "RNasin Plus"-brand RNase inhibitor (recombinant rat-derived RNase inhibitor protein, Promega Pt # N261) (other, UniProt P29315 1-456, looked up)
chain: MSLDIQCEQLSDARWTELLPLIQQYQVVRLDDCGLTEVRCKDIRSAIQANPALTELSLRTNELGDAGVGLVLQGLQNPTCKIQKLSLQNCSLTEAGCGVLPDVLRSLSTLRELHLNDNPLGDEGLKLLCEGLRDPQCRLEKLQLEYCNLTATSCEPLASVLRVKPDFKELVLSNNDFHEAGIHTLCQGLKDSACQLESLKLENCGITSANCKDLCDVVASKASLQELDLGSNKLGNTGIAALCSGLLLPSCRLRTLWLWDCDVTAEGCKDLCRVLRAKQSLKELSLAGNELKDEGAQLLCESLLEPGCQLESLWVKTCSLTAASCPHFCSVLTKNRSLFELQMSSNPLGDSGVVELCKALGYPDTVLRVLWLGDCDVTDSGCSSLATVLLANRSLRELDLSNNCMGDNGVLQLLESLKQPSCILQQLVLYDIYWTDEVEDQLRALEEERPSLRIIS
  % inhibition of RNase; RNasin Plus-brand inhibitor without DTT increased 10-fold (10×); 58° C.: 100%

Source: patent US20040197795A1 (published 2004)
